# Publication PMC10560217, “Structural conservation of insulin/IGF signalling axis at the insulin receptors level in Drosophila and humans” (Nature Communications, 2023)
# B1: Drosophila insulin receptor ectodomain (dmIR-ECD) (domain or fragment, Drosophila melanogaster, UniProt P09208 264-1309, looked up)
# chain: LPAHQQHLLHNDIADGLDKTALSVSGTQSRWTRSESNPTMRLSQNVKPCKSMDIRNMVSHFNQLENCTVIEGFLLIDLINDASPLNRSFPKLTEVTDYIIIYRVTGLHSLSKIFPNLSVIRGNKLFDGYALVVYSNFDLMDLGLHKLRSITRGGVRIEKNHKLCYDRTIDWLEILAENETQLVVLTENGKEKECRLSKCPGEIRIEEGHDTTAIEGELNASCQLHNNRRLCWNSKLCQTKCPEKCRNNCIDEHTCCSQDCLGGCVIDKNGNESCISCRNVSFNNICMDSCPKGYYQFDSRCVTANECITLTKFETNSVYSGIPYNGQCITHCPTGYQKSENKRMCEPCPGGKCDKECSSGLIDSLERAREFHGCTIITGTEPLTISIKRESGAHVMDELKYGLAAVHKIQSSLMVHLTYGLKSLKFFQSLTEISGDPPMDADKYALYVLDNRDLDELWGPNQTVFIRKGGVFFHFNPKLCVSTINQLLPMLASKPKFFEKSDVGADSNGNRGSCGTAVLNVTLQSVGANSAMLNVTTKVEIGEPQKPSNATIVFKDPRAFIGFVFYHMIDPYGNSTKSSDDPCDDRWKVSSPEKSGVMVLSNLIPYTNYSYYVRTMAISSELTNAESDVKNFRTNPGRPSKVTEVVATAISDSKINVTWSYLDKPYGVLTRYFIKAKLINRPTRNNNRDYCTEPLVKAMENDLPATTPTKKISDPLAGDCKCVEGSKKTSSQEYDDRKVQAGMEFENALQNFIFVPNIRKSKNGSSDKSDGAEGAALDSNAIPNGGATNPSRRRRDVALEPELDDVEGSVLLRHVRSITDDTDAFFEKDDENTYKDEEDLSSNKQFYEVFAKELPPNQTHFVFEKLRHFTRYAIFVVACREEIPSEKLRDTSFKKSLCSDYDTVFQTTKRKKFADIVMDLKVDLEHANNTESPVRVRWTPPVDPNGEIVTYEVAYKLQKPDQVEEKKCIPAADFNQTAGYLIKLNEGLYSFRVRANSIAGYGDFTEVEHIKVEPPPSYA
# modifications: N-glycosylation at Asn606 (traces in the cryoEM reconstruction)
# notes: a starting methionine was added in front; codon optimised; Asn335 is the first residue seen in the maps; Described as an (alpha-beta)2 homodimer; each protomer comes from one expressed precursor chain (alpha and beta subunits), protomers linked by disulfides; Mass used for ITC 233538 g/mol (the dimer); also called dmIR ectodomain; source: Sf9 cells, baculovirus, secreted into conditioned media, …
# Target: the molecule itself
# Test: cryo-EM structure; equal volumes of 10 uM dmIR-ECD and 50 uM DILP5 (five-molar hormone excess) in 50 mM Tris, 150 mM NaCl, pH 7.4; reconstruction at 4.0 A
protein,measurement,value
B1,stoichiometry N,2
